Data from US20130156781A1 (GOVT OF THE UNITED STATES OF AMERICA H H N I H OFFICE OF …, published 2013).

T1: Recombinant human rTRAIL receptor 1 (DR4), extracellular part, amino acids 25-239 (human, UniProt O00220 25-239)
T1 construct: also called rDR4; recombinant DR4
T1 sequence: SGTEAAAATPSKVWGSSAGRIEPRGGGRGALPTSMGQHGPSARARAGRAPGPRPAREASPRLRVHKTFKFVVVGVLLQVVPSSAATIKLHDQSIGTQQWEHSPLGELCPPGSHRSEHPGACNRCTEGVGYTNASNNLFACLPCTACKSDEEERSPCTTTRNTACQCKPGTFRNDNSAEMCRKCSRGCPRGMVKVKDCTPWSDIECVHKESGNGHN


Columns and labels:
DR5 = target: T2, DR5 (UniProt O14763 56-182, limits assumed); assay: ELISA
T2 construct: also called TRAIL-R2

[1] = target: T1, Recombinant human rTRAIL receptor 1 …; assay: ELISA, DR4 coated at 50 ng/well, IgG1 detected with anti-human Fc-HRP
Description: To testing binding of recombinant antibodies to DR4 in vitro, DR4 protein was coated onto half-area ELISA plate at 50 ng/well. After blocking with MPBS, different dilutions of antibodies were incubated with coated wells. For detection of binding antibodies, secondary antibody goat anti-Flag tag-HRP and goat anti-human Fc-HRP (both used at 1:1000) were used to detect Fab or IgG. The ELISA signal was developed with substrate ABTS, and read under wavelength 405 nm. […] The mixture was then added to wells for ELISA.

Binder | binding result (DR5) | EC50 [1] [nM]
m921 IgG1 (antibody, V domains shown, also called IgG m921; DR4 IgG m921) VH: QVQLQQSGPGLVKPSQTLSLTCAISGDSVSSNSAAWNWIRQSPSRGLEWLGRTYYRSKWYNDYAVSVKGRITINPDTSKNQFSLQLNSVTPEDTAVYYCARDLGVAAADSYYYYGMDVWGQGTTVTVSS VL: QPVLTQPPSASATPGQRVTISCSGSSSNIGSNTLDWFQQLPGTAPKLLIFDTNRRPSGVPDRFSGSKSGTSASLAISGLQAEDEAVYFCATWDNSLNGAVFGGGTKLSVPR | no binding (tested: 1000 nM) | ~10
m922 IgG1 (antibody, V domains shown, also called IgG m922; DR4 m922 IgG) VH: QVQLQQSGPGLVKPSQTLSLTCAISGDSVSSNSAAWNWIRQSPSRGLEWLGRTYYRSKWYNDYAVSVKSRITINPDTSKNQFSLQLNSVTPEDTAVYYCARETVAVDAFDIWGQGTMVTVSS VL: not shown | no binding (tested: 1000 nM) | ~10
